In patent US20240076403A1:
Values belong to the substance of their own block, whether it stands above or below them.

Columns and labels:
[1] = molecular target: human HER2-His protein (Acro, Cat. No. HE2-H5225) (human) (UniProt P04626); test: ELISA, 1 nM
[2] = molecular target: human HER2-His protein (Acro, Cat. No. HE2-H5225) (human) (UniProt P04626); test: ELISA, 1 nM; remark: listed apart in the source
[3] = molecular target: human HER2-His protein (Acro, Cat. No. HE2-H5225) (human) (UniProt P04626); test: ELISA, 10 nM
[4] = molecular target: monkey HER2-His protein (Sino Biological, Cat. No. 90295-C08H) (monkey); test: ELISA, 10 nM
[5] = molecular target: human HER2-His protein (Acro, Cat. No. HE2-H5225) (human) (UniProt P04626); test: ELISA, 10 nM; remark: listed apart in the source
[6] = molecular target: human HER2-His protein (Acro, Cat. No. HE2-H5225) (human) (UniProt P04626); test: ELISA, 0.1 nM
[7] = molecular target: monkey HER2-His protein (Sino Biological, Cat. No. 90295-C08H) (monkey); test: ELISA, 0.1 nM
[8] = molecular target: human HER2-His protein (Acro, Cat. No. HE2-H5225) (human) (UniProt P04626); test: ELISA, 100 nM
[9] = molecular target: monkey HER2-His protein (Sino Biological, Cat. No. 90295-C08H) (monkey); test: ELISA, 100 nM
[10] = molecular target: human HER2-His protein (Acro, Cat. No. HE2-H5225) (human) (UniProt P04626); test: ELISA, 0.01 nM
[11] = molecular target: monkey HER2-His protein (Sino Biological, Cat. No. 90295-C08H) (monkey); test: ELISA, 0.01 nM
[12] = molecular target: human HER2-His protein (Acro, Cat. No. HE2-H5225) (human) (UniProt P04626); test: ELISA, 0.001 nM
[13] = molecular target: human HER2-His protein (Acro, Cat. No. HE2-H5225) (human) (UniProt P04626); test: ELISA, 0.001 nM; remark: listed apart in the source
[14] = molecular target: monkey HER2-His protein (Sino Biological, Cat. No. 90295-C08H) (monkey); test: ELISA, 0.001 nM
[15] = molecular target: human HER2-His protein (Acro, Cat. No. HE2-H5225) (human) (UniProt P04626); test: ELISA, 0.0001 nM
[16] = molecular target: monkey HER2-His protein (Sino Biological, Cat. No. 90295-C08H) (monkey); test: ELISA, 0.0001 nM
[17] = molecular target: human HER2-His protein (Acro, Cat. No. HE2-H5225) (human) (UniProt P04626); test: ELISA, 0.00001 nM
[18] = molecular target: monkey HER2-His protein (Sino Biological, Cat. No. 90295-C08H) (monkey); test: ELISA, 0.00001 nM
[19] = molecular target: human HER2 protein on cells (SK-BR-3 endogenous; CHO-K1-human HER2 recombinant) (human) (UniProt P04626); test: FACS on SK-BR-3 cells
[20] = molecular target: human HER2 protein on cells (SK-BR-3 endogenous; CHO-K1-human HER2 recombinant) (human) (UniProt P04626); test: FACS on CHO-K1-human HER2 cells
[21] = molecular target: monkey HER2-His protein (monkey); test: ELISA, coated monkey HER2-His
[22] = molecular target: monkey HER2 on HEK293T-monkey-HER2 cells (monkey); test: FACS on HEK293T-monkey-HER2 cells

- OD450 [1]: 0.06
- OD450 [2]: 0.05
- OD450 [3]: 0.06
- OD450 [4]: 0.07
- OD450 [5]: 0.05
- OD450 [6]: 0.05
- OD450 [7]: 0.05
- OD450 [8]: 0.06
- OD450 [9]: 0.12
- OD450 [10]: 0.06
- OD450 [11]: 0.08
- OD450 [12]: 0.06
- OD450 [13]: 0.05
- OD450 [14]: 0.05
- OD450 [15]: 0.06
- OD450 [16]: 0.06
- OD450 [17]: 0.05
- OD450 [18]: 0.05
- Max MFI [19]: 73
- Max MFI [20]: 71
Substance: hIgG1 (IgG subtype control) (antibody)

- OD450 nm at 0.0001 nM antibody [21]: 0.06 OD450 nm
- OD450 nm at 0.001 nM antibody [21]: 0.09 OD450 nm
- OD450 nm at 0.01 nM antibody [21]: 0.05 OD450 nm
- OD450 nm at 0.1 nM antibody [21]: 0.06 OD450 nm
- OD450 nm at 1 nM antibody [21]: 0.05 OD450 nm
- OD450 nm at 10 nM antibody [21]: 0.05 OD450 nm
- OD450 nm at 100 nM antibody [21]: 0.09 OD450 nm
- Max MFI [22]: 127 MFI
Substance: hIgG1 (antibody)
